The values below come from patent US20140087995A1 (published 2014).

In test [1] the target is T1, rat amylin receptor (rat calcitonin receptor + rat RAMP 3) (rat, UniProt P32214 25-516; Q9JJ73 23-147).
T1 construct: whole, on cells; Membranes of transiently transfected BHK tk'ts 13 cells (Assay VI); also called rAmylin-R; rat amylin 3(a) receptor
T1 sequence (looked up) 1: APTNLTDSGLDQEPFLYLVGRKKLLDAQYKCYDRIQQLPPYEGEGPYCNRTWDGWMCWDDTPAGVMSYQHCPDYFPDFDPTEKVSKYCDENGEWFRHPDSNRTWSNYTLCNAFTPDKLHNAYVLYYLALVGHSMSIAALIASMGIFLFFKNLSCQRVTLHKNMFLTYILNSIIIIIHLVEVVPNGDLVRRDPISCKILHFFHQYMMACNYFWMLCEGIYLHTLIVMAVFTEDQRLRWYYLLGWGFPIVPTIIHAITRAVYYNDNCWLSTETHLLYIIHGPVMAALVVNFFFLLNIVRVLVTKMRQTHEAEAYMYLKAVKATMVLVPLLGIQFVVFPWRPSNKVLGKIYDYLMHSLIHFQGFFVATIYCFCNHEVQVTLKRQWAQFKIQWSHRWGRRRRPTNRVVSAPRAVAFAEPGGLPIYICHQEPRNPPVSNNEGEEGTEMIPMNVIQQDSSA
T1 sequence (looked up) 2: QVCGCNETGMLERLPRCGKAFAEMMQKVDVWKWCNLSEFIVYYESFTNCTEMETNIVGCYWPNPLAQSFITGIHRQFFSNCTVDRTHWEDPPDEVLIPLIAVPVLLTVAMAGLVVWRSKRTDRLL
Nature of the test: SPA competition with 125I-rat amylin, membranes of BHK cells with rat calcitonin receptor + rat RAMP3 (Assay VI).

The target in test [2] is T2, rat calcitonin receptor (rat, UniProt P32214 25-516).
T2 construct: whole, on cells; Membranes of transiently transfected BHK tk'ts 13 cells (Assay VIII); also called rCTR
T2 sequence (looked up): T1 sequence (looked up) 1
The test can be described thus: ratio IC50 rat calcitonin receptor / IC50 rat amylin receptor (reference).

Test [3] addresses T3, human calcitonin receptor (human, UniProt P30988 25-474).
T3 construct: whole, on cells; Membranes of a stably transfected BHK cell line (Assay VII); also called hCTR; hCT
T3 sequence (looked up): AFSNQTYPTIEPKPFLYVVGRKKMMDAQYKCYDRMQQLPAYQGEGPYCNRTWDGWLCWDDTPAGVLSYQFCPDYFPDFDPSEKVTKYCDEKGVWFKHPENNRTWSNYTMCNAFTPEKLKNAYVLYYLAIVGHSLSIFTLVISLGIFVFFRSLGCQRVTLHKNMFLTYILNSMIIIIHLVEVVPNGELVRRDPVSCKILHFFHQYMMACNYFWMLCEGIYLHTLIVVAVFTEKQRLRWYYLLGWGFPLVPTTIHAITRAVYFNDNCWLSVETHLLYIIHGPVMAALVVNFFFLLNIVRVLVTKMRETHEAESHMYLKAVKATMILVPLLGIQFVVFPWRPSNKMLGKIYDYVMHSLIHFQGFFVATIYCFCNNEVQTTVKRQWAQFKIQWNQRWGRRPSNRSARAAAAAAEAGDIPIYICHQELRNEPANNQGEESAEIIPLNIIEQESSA
The test can be described thus: ratio IC50 human calcitonin receptor / IC50 human amylin receptor (reference). How it is done: The resulting pellet was resuspended, homogenized and centrifuged (20.000 rpm, 15 min) in a buffer containing 20 mM Na-HEPES and 0.1 mM EDTA (pH 7.4, buffer 2). The resulting pellet was resuspended in buffer 2 and protein concentration was measured (BCA protein Assay, Pierce). The homogenate was kept cold during the whole procedure. The membranes were kept at −80° C. until use. The assay was performed in a 384 well Optiplate (PerkinElmer) in a total volume of 40 ul. Membranes were mixed with SPA beads. Final concentration of membranes 35 ng/μL final and SPA beads was 0.05 mg/well. Test-compounds were dissolved in DMSO and further diluted in assay buffer (50 mM Hepes, pH 7.4, 1 mM CaCl2, 5 mM MgCl₂, 0.1% OA and 0.02% Tween20). […] The final mixture was incubated with shaking at 400 rpm for 120 min at 25° C. prior to centrifugation (1500 rpm, 10 min). Samples were analyzed on TopCounter™ (Packard). The IC₅₀ was calculated using (one site binding competition analysis) GraphPad Prism5 as a measure of receptor affinity.
Membranes were prepared in the following way; the cells were rinsed with PBS and incubated with Versene for approximately 5 min before harvesting. The cells were flushed with PBS and the cell-suspension was centrifuged for 5 min at 1000 rpm. Cells were homogenized (Ultrathurrax) in a buffer containing 20 mM Na-HEPES and 10 mM EDTA (pH 7.4) and centrifuged at 20.000 rpm for 15 min. The resulting pellet was resuspended, homogenized and centrifuged (20.000 rpm, 15 min) in a buffer containing 20 mM Na-HEPES and 0.1 mM EDTA (pH 7.4, buffer 2). The resulting pellet was resuspended in buffer 2 and protein concentration was measured (BCA protein Assay, Pierce). The homogenate was kept cold during the whole procedure. The membranes were kept at −80° C. until use. Assay was performed in a 384 well Optiplate (PerkinElmer) in a total volume of 40 ul. Membranes were mixed with SPA beads.

Test [4] deals with T2, rat calcitonin receptor. The test can be described thus: SPA competition with 125I-calcitonin, membranes of BHK cells with rat calcitonin receptor (Assay VIII).

Numbered stars: 1 amine (or outer) side, 2 acyl side, 3 side chain; on linkers, the order of the positions; unused ones are H or OH. Bridge positions count the residues as written; N and C are the ends. Side chains are listed from the residue outwards. Ends that are not written are not given here. * marks the point of attachment. C20 diacid = O=C(O)CCCCCCCCCCCCCCCCCCC(=O)*; γGlu = O=C(O)[C@H](CCC(=O)[*:2])N[*:1]; C14 diacid = O=C(O)CCCCCCCCCCCCC(=O)*; AEEA = NCCOCCOCC(=O)O

B1: N^ε1-[2-[2-[2-[[2-[2-[2-[[(4S)-4-carboxy-4-(19-carboxynonadecanoylamino)butanoyl]amino]ethoxy]ethoxy]acetyl]amino]ethoxy]ethoxy]acetyl]-[Arg17,Pro21,Pro27,Pro31 … (peptide)
peptide: K([AEEA-AEEA-γGlu-C20 diacid])CNTATCATQRLANFLRHSSPNFGAIPSSTPVGSNTY-NH2
modifications: disulfide 2-7; N-terminus assumed
SMILES: CC[C@H](C)[C@H](NC(=O)[C@H](C)NC(=O)CNC(=O)[C@H](Cc1ccccc1)NC(=O)[C@H](CC(N)=O)NC(=O)[C@@H]1CCCN1C(=O)[C@H](CO)NC(=O)[C@H](CO)NC(=O)[C@H](Cc1c[nH]cn1)NC(=O)[C@H](CCCNC(=N)N)NC(=O)[C@H](CC(C)C)NC(=O)[C@H](Cc1ccccc1)NC(=O)[C@H](CC(N)=O)NC(=O)[C@H](C)NC(=O)[C@H](CC(C)C)NC(=O)[C@H](CCCNC(=N)N)NC(=O)[C@H](CCC(N)=O)NC(=O)[C@@H](NC(=O)[C@H](C)NC(=O)[C@@H]1CSSC[C@H](NC(=O)[C@@H](N)CCCCNC(=O)COCCOCCNC(=O)COCCOCCNC(=O)CC[C@H](NC(=O)CCCCCCCCCCCCCCCCCCC(=O)O)C(=O)O)C(=O)N[C@@H](CC(N)=O)C(=O)N[C@@H]([C@@H](C)O)C(=O)N[C@@H](C)C(=O)N[C@@H]([C@@H](C)O)C(=O)N1)[C@@H](C)O)C(=O)N1CCC[C@H]1C(=O)N[C@@H](CO)C(=O)N[C@@H](CO)C(=O)N[C@H](C(=O)N1CCC[C@H]1C(=O)N[C@H](C(=O)NCC(=O)N[C@@H](CO)C(=O)N[C@@H](CC(N)=O)C(=O)N[C@H](C(=O)N[C@@H](Cc1ccc(O)cc1)C(N)=O)[C@@H](C)O)C(C)C)[C@@H](C)O
notes: also called compound 96
Turning to B1, the half-maximal inhibitory concentration (IC50) (in general, the concentration that gives 50% inhibition) in test [1] worked out at 0.529 nM; with rat calcitonin receptor [4] it was 62.2 nM. Further, the “Ratio rCT/rAmylin binding” value in the test with rat calcitonin receptor [2] was 118. Moreover, the “Ratio hCT/hAmylin binding” value in test [3] is 79.6.

B2: N^ε1-[2-[2-[2-[[2-[2-[2-[[(4S)-4-carboxy-4-(19-carboxynonadecanoylamino)butanoyl]amino]ethoxy]ethoxy]acetyl]amino]ethoxy]ethoxy]acetyl]-[Arg17,Pro21,Pro27,Pro34 … (peptide)
peptide: K([AEEA-AEEA-γGlu-C20 diacid])CNTATCATQRLANFLRHSSPNFGAIPSSTNVGPNTY-NH2
modifications: disulfide 2-7; N-terminus assumed
SMILES: CC[C@H](C)[C@H](NC(=O)[C@H](C)NC(=O)CNC(=O)[C@H](Cc1ccccc1)NC(=O)[C@H](CC(N)=O)NC(=O)[C@@H]1CCCN1C(=O)[C@H](CO)NC(=O)[C@H](CO)NC(=O)[C@H](Cc1c[nH]cn1)NC(=O)[C@H](CCCNC(=N)N)NC(=O)[C@H](CC(C)C)NC(=O)[C@H](Cc1ccccc1)NC(=O)[C@H](CC(N)=O)NC(=O)[C@H](C)NC(=O)[C@H](CC(C)C)NC(=O)[C@H](CCCNC(=N)N)NC(=O)[C@H](CCC(N)=O)NC(=O)[C@@H](NC(=O)[C@H](C)NC(=O)[C@@H]1CSSC[C@H](NC(=O)[C@@H](N)CCCCNC(=O)COCCOCCNC(=O)COCCOCCNC(=O)CC[C@H](NC(=O)CCCCCCCCCCCCCCCCCCC(=O)O)C(=O)O)C(=O)N[C@@H](CC(N)=O)C(=O)N[C@@H]([C@@H](C)O)C(=O)N[C@@H](C)C(=O)N[C@@H]([C@@H](C)O)C(=O)N1)[C@@H](C)O)C(=O)N1CCC[C@H]1C(=O)N[C@@H](CO)C(=O)N[C@@H](CO)C(=O)N[C@H](C(=O)N[C@@H](CC(N)=O)C(=O)N[C@H](C(=O)NCC(=O)N1CCC[C@H]1C(=O)N[C@@H](CC(N)=O)C(=O)N[C@H](C(=O)N[C@@H](Cc1ccc(O)cc1)C(N)=O)[C@@H](C)O)C(C)C)[C@@H](C)O
notes: also called compound 98
With B2, the results for the concentration for half-maximal inhibition (IC50) (in test [1]; with rat calcitonin receptor [4]) were 0.137 nM and 24.1 nM, respectively. Also, the “Ratio rCT/rAmylin binding” value with rat calcitonin receptor [2] stood at 176. Also, in test [3], the “Ratio hCT/hAmylin binding” value was determined as 74.1.

B3: N^ε1-[(4S)-4-carboxy-4-(13-carboxytridecanoylamino)butanoyl]-[Arg17,Pro21,Pro27,His34]-h-amylin (peptide)
peptide: K([γGlu-C14 diacid])CNTATCATQRLANFLRHSSPNFGAIPSSTNVGHNTY-NH2
modifications: disulfide 2-7; N-terminus assumed
SMILES: CC[C@H](C)[C@H](NC(=O)[C@H](C)NC(=O)CNC(=O)[C@H](Cc1ccccc1)NC(=O)[C@H](CC(N)=O)NC(=O)[C@@H]1CCCN1C(=O)[C@H](CO)NC(=O)[C@H](CO)NC(=O)[C@H](Cc1c[nH]cn1)NC(=O)[C@H](CCCNC(=N)N)NC(=O)[C@H](CC(C)C)NC(=O)[C@H](Cc1ccccc1)NC(=O)[C@H](CC(N)=O)NC(=O)[C@H](C)NC(=O)[C@H](CC(C)C)NC(=O)[C@H](CCCNC(=N)N)NC(=O)[C@H](CCC(N)=O)NC(=O)[C@@H](NC(=O)[C@H](C)NC(=O)[C@@H]1CSSC[C@H](NC(=O)[C@@H](N)CCCCNC(=O)CC[C@H](NC(=O)CCCCCCCCCCCCC(=O)O)C(=O)O)C(=O)N[C@@H](CC(N)=O)C(=O)N[C@@H]([C@@H](C)O)C(=O)N[C@@H](C)C(=O)N[C@@H]([C@@H](C)O)C(=O)N1)[C@@H](C)O)C(=O)N1CCC[C@H]1C(=O)N[C@@H](CO)C(=O)N[C@@H](CO)C(=O)N[C@H](C(=O)N[C@@H](CC(N)=O)C(=O)N[C@H](C(=O)NCC(=O)N[C@@H](Cc1c[nH]cn1)C(=O)N[C@@H](CC(N)=O)C(=O)N[C@H](C(=O)N[C@@H](Cc1ccc(O)cc1)C(N)=O)[C@@H](C)O)C(C)C)[C@@H](C)O
In the case of B3, the half-inhibitory concentration (IC50) is 2.52 nM in test [1] and 707 nM in the test with rat calcitonin receptor [4]. Further, the “Ratio rCT/rAmylin binding” value in the test with rat calcitonin receptor [2] was found to be 280. In test [3], the “Ratio hCT/hAmylin binding” value was found to be 23.5.

B4: N^ε1-[2-[2-[2-[[(4S)-4-carboxy-4-(19-carboxynonadecanoylamino)butanoyl]amino]ethoxy]ethoxy]acetyl]-[His14,Arg17,Pro21,Pro27,Arg34]-h-amylin (peptide)
peptide: K([AEEA-γGlu-C20 diacid])CNTATCATQRLAHFLRHSSPNFGAIPSSTNVGRNTY-NH2
modifications: disulfide 2-7; N-terminus assumed
SMILES: CC[C@H](C)[C@H](NC(=O)[C@H](C)NC(=O)CNC(=O)[C@H](Cc1ccccc1)NC(=O)[C@H](CC(N)=O)NC(=O)[C@@H]1CCCN1C(=O)[C@H](CO)NC(=O)[C@H](CO)NC(=O)[C@H](Cc1c[nH]cn1)NC(=O)[C@H](CCCNC(=N)N)NC(=O)[C@H](CC(C)C)NC(=O)[C@H](Cc1ccccc1)NC(=O)[C@H](Cc1c[nH]cn1)NC(=O)[C@H](C)NC(=O)[C@H](CC(C)C)NC(=O)[C@H](CCCNC(=N)N)NC(=O)[C@H](CCC(N)=O)NC(=O)[C@@H](NC(=O)[C@H](C)NC(=O)[C@@H]1CSSC[C@H](NC(=O)[C@@H](N)CCCCNC(=O)COCCOCCNC(=O)CC[C@H](NC(=O)CCCCCCCCCCCCCCCCCCC(=O)O)C(=O)O)C(=O)N[C@@H](CC(N)=O)C(=O)N[C@@H]([C@@H](C)O)C(=O)N[C@@H](C)C(=O)N[C@@H]([C@@H](C)O)C(=O)N1)[C@@H](C)O)C(=O)N1CCC[C@H]1C(=O)N[C@@H](CO)C(=O)N[C@@H](CO)C(=O)N[C@H](C(=O)N[C@@H](CC(N)=O)C(=O)N[C@H](C(=O)NCC(=O)N[C@@H](CCCNC(=N)N)C(=O)N[C@@H](CC(N)=O)C(=O)N[C@H](C(=O)N[C@@H](Cc1ccc(O)cc1)C(N)=O)[C@@H](C)O)C(C)C)[C@@H](C)O
notes: also called compound 84
As to B4, the 50% inhibitory concentration (IC50) in test [1] was 5.05 nM; with rat calcitonin receptor [4], 477 nM. In addition, the “Ratio rCT/rAmylin binding” value with rat calcitonin receptor [2] is 94.3. Besides, the “Ratio hCT/hAmylin binding” value in test [3] was determined as 120.
